# Results from the supplement of paper PMC10567573.
# ± gives the standard deviation.
# Experiment: protein stability index of a GFP-peptide fusion (GPS, HEK-293T) (PSI 1-6); higher = more stable
# Details: c terminus: a fixed tail appended
# 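Also: 24-mer peptide tiles fused after GFP, lentivirally expressed, FACS-sorted into six equal bins by GFP/DsRed ratio, decoded by Illumina sequencing, PSI is the read-weighted mean bin number.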
Sequence,protein stability index (treatment: DMSO),"protein stability index (treatment: MLN4924 1 uM, 8 h)"
VVGWFVLFYKPGIVLLLALAKYLK [GULP1],2.25 ± 0.41,2.37 ± 0.56
PYIPPHAALCLEVTLKTAVDGPDL [FKBP8],2.32 ± 0.41,2.23 ± 0.2
QESDQTEEHESGIEQFSESHAIHV [IQUB],5.34 ± 0.18,5.45 ± 0.22
SQPATPTPLQSRTSIVQAAAGGVP [PDLIM7],4.6 ± 0.25,4.6 ± 0.19
SSSYAGQFRVIGPRHPIRALVGDE [MOG],3.54 ± 0.31,3.48 ± 0.32
KDREYTDIIRKQVLGTKVDAERDG [CDC34],5.08 ± 0.21,4.99 ± 0.18
FVEATRKWKVGIPSDPLVSIGALI [ALDH8A1],2.34 ± 1.1,2.16 ± 0.57
LGKPDQKDLNENLAATQGLAHMIA [DLC1],3.79 ± 0.12,3.84 ± 0.23
MEEFRRSYSRLCRESGAEPQEAVL [LRRC45],3.77 ± 0.22,3.84 ± 0.27
NDPSVNSQAQETTIIASNAEEAEI [TOR1AIP2],5.5 ± 0.13,5.59 ± 0.34
PPRKSGSFHSSGEKQKQPRWREGT [PBXIP1],4.4 ± 0.068,4.38 ± 0.3
ECIYIIEAAPRQCIELYFDEKYSI [NETO1],3.08 ± 0.46,2.95 ± 0.32
VEKQGDTIEYLKRHNALLSKRLLA [TMEM192],2.87 ± 0.13,2.93 ± 0.27
GRRATLQRLVEALEENELTSLAED [TRADD],4.54 ± 0.19,4.43 ± 0.14
PCLCLSWEEAQSPANCPACREPSP [TRIM43],4.74 ± 0.24,4.79 ± 0.15
ISLVKREHDFLDRDAIEALCRRLN [DLC1],2.69 ± 0.18,2.8 ± 0.42
SGIPEVKCYLNGVKVPGIVRLRTL [CLCN6],2.4 ± 0.53,1.91 ± 0.35
TAPEEVPKVSDQALVSAHSEWQRK [DMRTC1],4.88 ± 0.61,5.07 ± 0.39
DSLKPEQLDIEEEGRPGAATFHVG [TFE3],5.38 ± 0.093,4.96 ± 0.4
PYTEKPRLWHTACASDEGEVIVFG [KLHDC2],2.51 ± 0.21,2.86 ± 0.23
ATTAATAAATTTTTTSAATATTAP [SNAP91],5.36 ± 0.22,5.52 ± 0.22
HPNSRKSSAGGAKAGQPESRALAL [ZNF8],4.67 ± 0.36,4.77 ± 0.16

Sequence,protein stability index (treatment: DMSO),"protein stability index (treatment: MLN4924 1 uM, 8 h)"
LKNIELFDKLALRFHGRLLFLKDV [KCTD13],2.66 ± 0.77,2.11 ± 0.15
YSCPATNECEITKRRRKSCQACRF [ESRRG],3.59 ± 0.51,4.15 ± 0.29
DKGEKLLRCKLAAFYRLADLFGWS [ADD1],2.59 ± 0.64,2.28 ± 0.24
VVLGSGGVGKSALTVQFVQGIFVE [RAP1B],2.99 ± 0.05,2.96 ± 0.44
GCCVFAFLVGLLFVQRSGNYFVTM [SLC6A17],3.39 ± 0.34,3.12 ± 0.07
SALGRQRLQDISSLPLPQSLKNYL [SPSB4],2.85 ± 0.11,3.27 ± 0.6
EIPLVIKYKKAVGLKLKQEKKEAY [WDR88],2.88 ± 0.32,2.56 ± 0.13
HVQKLSQECLKQLAIKKQQHIDNI [TRIM14],3.81 ± 0.36,3.75 ± 0.12
ASGSVLRLVDAVLGAEIRNGMAII [HDAC6],2.91 ± 0.56,2.55 ± 0.58
KDVKERFSGSLVAALSATGPRFLA [TMEM175],2.88 ± 0.55,2.73 ± 0.68
LYLIMEFLPGGDMMTLLMKKDTLT [STK38L],3.03 ± 0.13,2.94 ± 0.81
LVTQQLPHLMPSNCGLEEKIANLG [S100A14],2.43 ± 0.68,3.05 ± 0.55
PIKLELLEPKANLQAALQVLELHH [VPS39],2.36 ± 0.41,2.41 ± 0.22
INCKGRSKSNLGWTPLHLACYFGH [OSBPL1A],2.63 ± 0.32,2.28 ± 0.32
NKPTMSFKDYIQERSDPVEQGKPV [ETS2],4.75 ± 0.23,4.83 ± 0.26
SDVVDWLYHNVEGFTDRREARKYA [DVL3],3.23 ± 0.31,3.53 ± 0.33
SLVGNLGISGTTTKKGDLQWNAGE [SNAP91],3.54 ± 0.39,3.62 ± 0.23
LVKHKRIHSREKRGDSVKVENPST [ZNF649],4.41 ± 0.32,4.54 ± 0.48
LYVSGLPKTMSQKEMEQLFSQYGR [ELAVL3],2.55 ± 0.14,2.66 ± 0.39
GPRVGEALVSHPEVPLISFTGSQP [ALDH8A1],3.77 ± 0.34,4.09 ± 0.31
PKEQLSTSFQWVTKWVDYSNKYGF [PLK2],2.29 ± 0.45,2.46 ± 0.48
RSQQQEPLLCPSYQSYFKTIEELQ [KRT33B],3.21 ± 0.37,3.43 ± 0.18
